The source of these data is patent US20200148761A1 (Teva, published 2020).

The target of the assay is T1, human α-CGRP 1-36-COOH (human).
T1 construct: free C-terminal carboxyl, not amidated; also called 1-36 (not amidated at the C-terminus)
T1 peptide: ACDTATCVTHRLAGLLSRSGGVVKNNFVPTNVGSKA
The experiment in a line: Biacore competition, 50 nM G1 Fab with 10 µM peptide, read on human α-CGRP chip. The source says:
Y axis represents percentage of binding blocked by the presence of the competing peptide compared with the binding in the absence of the competing peptide. […]
On the technique in general: In SPR one partner is held on a chip, and binding of the other changes the refractive index at the surface.

B1: antibody G1 Fab fragment (Fab, V domains shown)
VH: EVQLVESGGGLVQPGGSLRLSCAASGFTFSNYWISWVRQAPGKGLEWVAEIRSESDASATHYAEAVKGRFTISRDNAKNSLYLQMNSLRAEDTAVYYCLAYFDYGLAIQNYWGQGTLVTVSS
VL: EIVLTQSPATLSLSPGERATLSCKASKRVTTYVSWYQQKPGQAPRLLIYGASNRYLGIPARFSGSGSGTDFTLTISSLEPEDFAVYYCSQSYNYPYTFGQGTKLEIK
For the molecule B1, the “percentage of binding blocked by competing peptide” value is about 40%.
